Biological target: T1, His-tagged recombinant N protein of SARS-CoV (SARS-CoV, UniProt P59595 1-422)
T1 construct: mature
Experiment: ELISA screening of hybridomas

T1 sequence (P59595 1-422, tags left off): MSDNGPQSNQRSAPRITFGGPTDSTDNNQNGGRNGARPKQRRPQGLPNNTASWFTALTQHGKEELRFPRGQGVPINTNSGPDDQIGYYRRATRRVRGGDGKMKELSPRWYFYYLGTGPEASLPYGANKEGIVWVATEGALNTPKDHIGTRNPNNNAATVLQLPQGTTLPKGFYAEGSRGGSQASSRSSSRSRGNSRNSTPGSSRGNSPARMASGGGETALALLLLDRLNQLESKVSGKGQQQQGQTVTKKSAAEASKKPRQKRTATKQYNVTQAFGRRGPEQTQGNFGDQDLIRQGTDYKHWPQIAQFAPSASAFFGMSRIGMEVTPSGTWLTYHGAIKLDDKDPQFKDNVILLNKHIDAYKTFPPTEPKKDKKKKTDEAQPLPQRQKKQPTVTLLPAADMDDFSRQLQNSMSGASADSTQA

B1: first antibody (monoclonal antibody purified from the culture supernatant of the hybridoma of Clone 1) (antibody, V domains shown)
VH: QVTLKESGPGILQPSQTLSLTCSFSGFSLSTSGTGVSWIRQPSGKGLEWLAHIYWDDDKRYNPSLKSRLTVSKDTSGNQVFLKITSVDTADTATYYCARSNYGYDLDYWGQGTTLTVSS
VL: DIVMTQSQKFMSTSVGDRVSVTCKASQNVGTNVVWYQQKPGQSPKALIYSASYRYSGVPDRFTGSGSGTDFTLTISNVQSEDLAEYFCQQYNNYPLTFGSGTKLEIKR
notes: also called capture antibody
B1: binds.
